These results are taken from patent WO2006033413A1 (dated 2006).

Assay [1] deals with human osteocalcin (human) (UniProt P02818). The assay is described as follows: ELISA: 0.5 ug/mL KTM-219 on plate coated with 2 ug/mL human osteocalcin, peroxidase anti-mouse IgG detection (zero-competitor point of the competition ELISA). A general note: ELISA stands for enzyme-linked immunosorbent assay.
Assay [2] has as its target T1, OC-1 peptide (human).
T1 construct: Conjugated to BSA as the coating antigen in the screening ELISA; also called C-terminal 12 amino acid partial peptide of human osteocalcin
T1 peptide: FQEAYRRFYGPV
The assay is described as follows: competitive inhibition ELISA on OC peptide-BSA with free OC peptide (hybridoma screening).

In assay [3] the target is T1, OC-1 peptide. The assay is described as follows: open sandwich ELISA: MBP-VL adsorbed on plate, VH-AP in solution, p-nitrophenyl phosphate, OD405.

B1: mouse monoclonal antibody KTM-219 (antibody, IgG1, V domains shown)
VH: EVQLEESGAEFVKAGASVKLSCKTSGYTFNNYWIHWVKQSPGQGLEWIGEIDPSDGYSNYNQKFKGKATLTVDKSSSTAYMHLNSLTSEDSAVYYCTSSTSVGGSWGQGTTVTVSS
VL: DIELTQSPLSLPVSLGDQASISCTSSQSLLHSNGDTYLHWYLQKPGQSPKLLIYTLSNRFSGVPDRFSGSGSGTDFTLKISRVEAADLGIYFCSQTTHVPYTFGGGTKLEIKR
notes: Biotin-labelled when used as the detection antibody in the sandwich ELISA; also called anti-OC-1 peptide monoclonal antibody
Regarding B1, the absorbance (450 nm) without OC-1 peptide in assay [1] came out at 2.28 absorbance. Moreover, in assay [2], the binding result was “binds”.

B2: KTM-219 VH-AP fusion protein together with MBP-VL fusion protein (open sandwich pair) (other)
VH: EVQLEESGAEFVKAGASVKLSCKTSGYTFNNYWIHWVKQSPGQGLEWIGEIDPSDGYSNYNQKFKGKATLTVDKSSSTAYMHLNSLTSEDSAVYYCTSSTSVGGSWGQGTTVTVSS
VL: DIELTQSPLSLPVSLGDQASISCTSSQSLLHSNGDTYLHWYLQKPGQSPKLLIYTLSNRFSGVPDRFSGSGSGTDFTLKISRVEAADLGIYFCSQTTHVPYTFGGGTKLEIKR
notes: Two separate purified periplasmic proteins; MBP-VL (about 56.5 kDa) is adsorbed on the plate and VH-AP (about 61.9 kDa) is added in solution; also called VH-alkaline phosphatase fusion protein; pET-VH219-AP product; not shown: E. coli alkaline phosphatase (1450 bp fragment of pPhoA); His tag; His-Myc tag
Turning to B2, the binding result in assay [3] was “binds”.
